Test system: peptide library, one residue held at a place counted from the S/T acceptor
Test: relative phosphorylation of the sub-library (ratio to the mean residue at this position); higher = residue favoured
Conditions: human
Procedure, shortened: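 Relative sub-library phosphorylation, a ratio to the mean residue at that position, was obtained by phosphorimaging and densitometry of spots on streptavidin membranes. Before capture, purified recombinant kinases were incubated for 90 min under kinase-specific conditions with 50 μM biotinylated degenerate peptide sub-libraries and 50 μM ATP spiked with γ-32P-ATP. Each sub-library fixed one residue at one position around a central Ser/Thr.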

MAPK11, construct: Full length, sequence (Q15759 whole entry, looked up): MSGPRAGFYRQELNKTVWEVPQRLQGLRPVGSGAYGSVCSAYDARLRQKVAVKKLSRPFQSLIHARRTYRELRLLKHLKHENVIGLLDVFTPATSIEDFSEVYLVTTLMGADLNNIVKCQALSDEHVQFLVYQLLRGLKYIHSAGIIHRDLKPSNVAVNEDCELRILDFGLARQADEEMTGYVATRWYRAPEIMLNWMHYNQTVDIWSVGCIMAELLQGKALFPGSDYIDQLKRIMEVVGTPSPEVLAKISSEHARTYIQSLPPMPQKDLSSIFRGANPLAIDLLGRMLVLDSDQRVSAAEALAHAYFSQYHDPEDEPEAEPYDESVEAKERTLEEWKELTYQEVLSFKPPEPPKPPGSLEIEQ
CSNK1G2, construct: aa43-353, sequence (P78368 43-353, looked up): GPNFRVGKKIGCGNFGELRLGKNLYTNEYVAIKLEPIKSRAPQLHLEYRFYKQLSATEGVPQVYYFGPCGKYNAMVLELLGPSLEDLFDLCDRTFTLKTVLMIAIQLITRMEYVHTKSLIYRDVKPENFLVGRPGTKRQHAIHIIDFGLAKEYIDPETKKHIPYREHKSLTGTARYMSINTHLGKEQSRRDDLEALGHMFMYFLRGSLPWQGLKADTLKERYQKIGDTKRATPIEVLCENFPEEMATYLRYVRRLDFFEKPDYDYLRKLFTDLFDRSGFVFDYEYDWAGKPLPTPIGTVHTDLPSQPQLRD
LATS1, construct: aa589-end, sequence (O95835 589-1130, looked up): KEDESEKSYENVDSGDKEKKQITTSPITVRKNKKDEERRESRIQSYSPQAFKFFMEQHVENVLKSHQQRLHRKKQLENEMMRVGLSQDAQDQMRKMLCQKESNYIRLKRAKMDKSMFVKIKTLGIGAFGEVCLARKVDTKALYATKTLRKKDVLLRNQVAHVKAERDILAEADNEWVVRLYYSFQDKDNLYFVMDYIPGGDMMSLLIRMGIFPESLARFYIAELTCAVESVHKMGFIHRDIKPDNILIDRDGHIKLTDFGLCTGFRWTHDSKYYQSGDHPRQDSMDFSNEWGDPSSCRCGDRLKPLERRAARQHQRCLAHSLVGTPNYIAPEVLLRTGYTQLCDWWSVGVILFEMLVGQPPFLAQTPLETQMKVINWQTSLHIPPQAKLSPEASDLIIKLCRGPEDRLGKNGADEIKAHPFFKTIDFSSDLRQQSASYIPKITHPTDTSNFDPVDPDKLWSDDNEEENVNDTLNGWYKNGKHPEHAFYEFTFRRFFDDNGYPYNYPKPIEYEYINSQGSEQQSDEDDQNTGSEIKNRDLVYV

CSNK1G2, construct: aa43-353 (from UniProt P78368)
relative phosphorylation
Conditions | at +1 | at +2 | at +3 | at +4 | at -1 | at -2 | at -3 | at -4 | at -5
A fixed | 0.721 | 0.84 | 0.944 | 0.864 | 1.07 | 1.17 | 0.642 | 1.13 | 0.845
D fixed | 0.589 | 0.43 | 1.14 | 1.31 | 1.52 | 1.2 | 4.54 | 1.46 | 2.48
E fixed | 1 | 0.999 | 0.339 | 1.25 | 2.85 | 4.44 | 2.79 | 1.85 | 1.89
F fixed | 0.973 | 1.33 | 1.29 | 0.996 | 0.834 | 0.524 | 0.55 | 0.896 | 0.82
G fixed | 0.636 | 0.516 | 1.23 | 0.746 | 0.797 | 0.686 | 0.705 | 0.767 | 0.79
H fixed | 0.986 | 1.21 | 1.59 | 0.806 | 0.904 | 0.682 | 0.652 | 0.861 | 0.886
I fixed | 1.88 | 1.32 | 1.08 | 0.961 | 0.902 | 0.666 | 0.465 | 0.694 | 0.875
K fixed | 0.517 | 0.942 | 0.54 | 0.702 | 0.774 | 0.659 | 0.891 | 0.877 | 0.968
L fixed | 1.55 | 0.605 | 0.944 | 1 | 1.02 | 0.656 | 0.458 | 0.842 | 0.76
M fixed | 1.36 | 1.3 | 1.09 | 1.03 | 0.484 | 0.594 | 0.561 | 0.817 | 0.799
N fixed | 0.672 | 0.875 | 0.732 | 0.797 | 0.807 | 1.18 | 0.766 | 0.858 | 0.859
P fixed | 0.44 | 0.537 | 0.738 | 0.947 | 0.965 | 0.876 | 0.577 | 1.05 | 0.745
Q fixed | 0.592 | 0.618 | 0.61 | 0.936 | 1.03 | 1.04 | 0.707 | 1.03 | 1
R fixed | 0.813 | 0.996 | 0.687 | 0.684 | 1.11 | 0.695 | 0.895 | 1.02 | 0.961
V fixed | 1.94 | 1.46 | 1.29 | 1.17 | 0.766 | 0.813 | 0.44 | 0.733 | 0.686
W fixed | 0.852 | 1.34 | 1.27 | 1.35 | 0.589 | 0.5 | 0.652 | 1.15 | 0.821
Y fixed | 1.47 | 1.68 | 1.49 | 1.45 | 0.569 | 0.619 | 0.711 | 0.971 | 0.816
pThr fixed | 1.33 | 1.36 | 2.58 | 3.98 | 3.89 | 9.46 | 62.6 | 8.08 | 4.7
pTyr fixed | 2.52 | 5.33 | 19.2 | 6.91 | 2.93 | 6.96 | 8.28 | 6.71 | 6.32

LATS1, construct: aa589-end (from UniProt O95835)
relative phosphorylation
Conditions | at +1 | at +2 | at +3 | at +4 | at -1 | at -2 | at -3 | at -4 | at -5
A fixed | 0.659 | 0.785 | 0.976 | 0.856 | 0.615 | 0.872 | 0.639 | 1.08 | 0.8
D fixed | 1.01 | 1.11 | 1.46 | 1.45 | 1.88 | 1.91 | 1.24 | 0.946 | 1.01
E fixed | 1.3 | 2.1 | 1.28 | 1.52 | 0.865 | 1.3 | 0.564 | 0.822 | 0.706
F fixed | 0.776 | 0.66 | 0.867 | 0.785 | 0.27 | 0.756 | 0.375 | 0.839 | 0.611
G fixed | 0.751 | 0.85 | 1.17 | 1.34 | 1.3 | 0.893 | 0.853 | 1.04 | 1.09
H fixed | 0.946 | 1.2 | 1.03 | 1.22 | 0.891 | 0.974 | 1.2 | 1.6 | 4.19
I fixed | 0.957 | 1.34 | 0.784 | 0.743 | 0.21 | 0.298 | 0.257 | 0.481 | 0.476
K fixed | 1.23 | 0.623 | 1.27 | 0.844 | 2.38 | 1.36 | 1.78 | 1.15 | 0.971
L fixed | 1.46 | 1.29 | 0.961 | 0.707 | 0.438 | 0.373 | 0.312 | 0.62 | 0.52
M fixed | 1.8 | 0.941 | 0.791 | 0.994 | 0.667 | 0.692 | 0.427 | 0.8 | 0.74
N fixed | 0.907 | 1.12 | 0.955 | 1.26 | 1.2 | 1.08 | 0.765 | 0.939 | 0.868
P fixed | 0.648 | 0.816 | 1.08 | 0.982 | 3.01 | 0.99 | 2.34 | 1.42 | 0.834
Q fixed | 0.91 | 0.846 | 0.941 | 0.924 | 1.02 | 1.41 | 0.705 | 1.02 | 0.718
R fixed | 0.683 | 1.21 | 0.645 | 0.755 | 0.915 | 1.79 | 3.7 | 1.19 | 1.15
V fixed | 0.797 | 0.771 | 0.902 | 0.647 | 0.294 | 0.359 | 0.326 | 0.61 | 0.613
W fixed | 1.26 | 0.585 | 1.06 | 0.907 | 0.436 | 0.969 | 0.708 | 1.5 | 0.842
Y fixed | 0.9 | 0.754 | 0.827 | 1.07 | 0.604 | 0.978 | 0.824 | 0.931 | 0.863
pThr fixed | 1.2 | 1.09 | 1.2 | 2.38 | 0.769 | 0.586 | 0.536 | 0.599 | 0.598
pTyr fixed | 0.854 | 0.716 | 0.789 | 1.15 | 0.411 | 0.431 | 0.542 | 0.578 | 0.613

MAPK11, construct: Full length (from UniProt Q15759)
relative phosphorylation
Conditions | at +1 | at +2 | at +3 | at +4 | at -1 | at -2 | at -3 | at -4 | at -5
A fixed | 1.65 | 1.14 | 1.35 | 0.935 | 1.22 | 0.953 | 1.26 | 1.14 | 1.12
D fixed | 0.136 | 0.985 | 0.947 | 0.919 | 0.745 | 0.501 | 0.917 | 1.25 | 1.06
E fixed | 0.12 | 0.81 | 0.98 | 0.818 | 0.765 | 0.338 | 1.03 | 1.13 | 0.921
F fixed | 0.268 | 0.828 | 0.913 | 1.27 | 0.852 | 0.614 | 0.708 | 0.766 | 0.944
G fixed | 0.841 | 1.14 | 1.08 | 1.19 | 1.24 | 0.73 | 1.53 | 1.21 | 1.22
H fixed | 0.227 | 1.1 | 0.959 | 1.15 | 1.21 | 0.572 | 0.902 | 0.941 | 1.12
I fixed | 0.304 | 1.15 | 1.11 | 1.05 | 0.676 | 1.16 | 1.04 | 0.885 | 0.88
K fixed | 0.209 | 1.12 | 0.583 | 0.818 | 0.842 | 0.461 | 0.722 | 0.961 | 0.921
L fixed | 0.337 | 1.04 | 1.01 | 1.14 | 1.37 | 1.46 | 1.09 | 0.982 | 1.08
M fixed | 0.26 | 0.951 | 0.852 | 1.08 | 1.67 | 1.22 | 0.988 | 1.06 | 0.941
N fixed | 0.141 | 0.874 | 0.632 | 0.764 | 0.705 | 0.585 | 0.886 | 0.952 | 0.956
P fixed | 11.4 | 0.762 | 1.95 | 1.01 | 1.39 | 5.14 | 1.61 | 1.29 | 1.37
Q fixed | 0.185 | 0.942 | 0.71 | 0.859 | 1.26 | 0.633 | 1.05 | 0.94 | 0.902
R fixed | 0.206 | 1.08 | 0.676 | 0.871 | 0.847 | 0.505 | 0.835 | 0.823 | 0.834
V fixed | 0.289 | 1.24 | 1.25 | 0.995 | 0.749 | 1.16 | 0.954 | 0.896 | 0.839
W fixed | 0.206 | 0.792 | 0.975 | 1.04 | 0.618 | 0.437 | 0.723 | 0.946 | 0.913
Y fixed | 0.2 | 1.05 | 1.02 | 1.1 | 0.833 | 0.53 | 0.748 | 0.83 | 0.981
pThr fixed | 0.405 | 1.32 | 1.18 | 0.795 | 0.364 | 0.617 | 1.1 | 1.16 | 1.15
pTyr fixed | 0.589 | 0.741 | 0.996 | 0.757 | 0.653 | 0.396 | 0.932 | 1.04 | 1.05
